{"source": "paper PMC6037669", "about": "“Optimization of a MT1-MMP-targeting Peptide and Its Application in Near-infrared Fluorescence Tumor Imaging” (Scientific Reports, 2018)", "key": {"MT1-MMP [1]": {"system": "MT1-MMP", "assay": "Isothermal titration calorimetry", "design": "species or system human", "conditions": "25 °C; 10 mM HEPES, 150 mM NaCl, pH 7.4; 1000 rpm; one-site binding model", "method": "The ITC experiments were conducted by using a MicroCal ITC-200 system (General Electric, USA) to determine the thermodynamic parameters of the polypeptides. The peptide of interest was dissolved in 10 mM HEPES and 150 mM NaCl solution at pH 7.4. All titrations were performed at 25 °C by injecting aliquots of a 40 μL MT1-160p (1 mM) degassed solution in a syringe into the calorimeter cell containing 200 μL of binding peptides (0.1 mM) degassed solution at a stirring rate of 1000 rpm. The baseline was corrected manually and the heat data were processed by fitting the ITC data into the NanoAnalyze software."}, "[2]": {"system": "MDA-MB-435 tumors (MT1-MMP)", "assay": "Whole-body small animal near-infrared fluorescence imaging", "method": "(§1) All of the animal experiments were conducted in accordance with the principles and procedures outlined in the ethics committee of Jilin University, and approved by Animal Care and Use Committee (CC/ACUCC) of Xiamen University. Subcutaneous sites of athymic nude mice (BALB/c, 6 weeks old, female, 19–21 g) were injected with a suspension of 1 × 10^7 breast carcinoma MDA-MB-435 cells in PBS (100 μL). Tumor growth was assessed with caliper measurements every 2 days, and tumor size was determined using the formula: V = a^*(b^2)/2, where a is the maximum length and b is the maximum width of each tumor in mm respectively. The tumor-bearing mice (n = 5/group) were subjected to optical imaging experiments once the tumor volume (in the right front leg region) reached average size of 200 mm^3 (Error less than 18 mm^3), mice were randomly allocated into three groups: Cy5.5-MT1-AF7p-H4R, Cy5.5-MT1-AF7p-H4R-Block or Cy5.5-MT1-AF7p were injected via their tail vein with […]. Fluorescent images and analysis were performed by using an IVIS Lumina II imaging system (Caliper Life Sciences, MA, USA; Excitation Filter: 630 nm, Emission Filter: 700 nm) at different time point post-injection (1, 2, 4, 6, 12, and 24 h). During injection and image acquiring process, mice were anesthetized with 2.5% isoflurane in oxygen at a flow of 1.5 L/min. Images were normalized to the same scale and analyzed. For semi-quantitative comparison, the regions of interest (ROI) were drawn over the tissues of interest, and the scaled average signal (photons cm^−2 s^−1) for each area was measured. Fluorescent signals from ROI were further corrected by the mice body weights. Results were presented as the mean ± SD for a group of five animals."}, "[3]": {"assay": "Whole-body small animal near-infrared fluorescence imaging", "conditions": "athymic nude BALB/c, mouse, in vivo, iv", "method": "as §1"}, "[4]": {"system": "MDA-MB-435 tumors (MT1-MMP)", "method": "The mice were injected with 1 nM Cy5.5-peptide to evaluate the distribution of affinity peptides in tumor tissues and major organs. At 4 h post-injection, the tumor-bearing mice were sacrificed, and their major organs, tissues, and tumors were harvested and placed on a black paper for ex vivo imaging (IVIS Lumina II, Caliper Life Sciences, MA, USA). The results were presented as the average scaled signal from the organs and the tumors."}, "MT1-MMP [5]": {"system": "MT1-MMP", "assay": "AFM force curve measurement, peptide on tip against immobilized MT1-MMP", "type": "binding, human", "conditions": "25 °C; for Binding force (peak position of force histogram): peptide on AFM tip via NHS-PEG18-aldehyde, MT1-MMP on APTES mica, PBS, 300 force curves, Gaussian fit", "method": "(§2) The MT1-MMP catalytic domain (20 kDa) was expressed in Escherichia coli (E. coli) as inclusion bodies. The activated form was produced through refold method. The recombinant human MT1-MMP catalytic domain was produced by E. coli BL21 that carried expression plasmids. The bacteria were grown to an optical density of 0.4 at 37 °C prior to induction. The overexpression of the protein of interest was induced by adding […] to a final concentration of 0.5 mM. Cultivation was proceeded for 4 h before the bacteria were broken by an ultrasonic wave. The inclusion bodies (proMT1-MMP) were solubilized and purified through his-tag affinity chromatography (General Electric, USA), as well as refolded by using dialysis bags to gradually reduce high denaturant concentrations in this process. The refolding buffer included 50 mM HEPES, 10 mM CaCl2, 200 mM NaCl, 1 mM phenylmethylsulfonyl fluoride, 20 μM ZnCl2, 0.01% Brij-35, 5% Glycerol, 100 μg/ml DNase, at a pH 7.5.\nThe surface layer of the mica was stripped to expose the silanol group-coated surface. Then, the mica was treated with 3-aminopropyltriethoxysilane (APTES, vapor) for 1.5 h at room temperature and dried in vacuum. To immobilize the protein or the peptide, the activated mica surface was immerged into MT1-160p or MT1-MMP solution (300 µg/mL in PBS) for 15 min, rinsed and kept in PBS buffer.\nAFM cantilever tips (MSCT) were purchased from Veeco (CA). The polypeptides were covalently immobilized on the tips by using chemical reactions as previously described. […]\nThe force curves were measured by using a PicoPSM 5500 instrument (Agilent Technologies, MA). […] The interaction force were detected at different points on the substrate. Over 1,000 force–distance cycles were collected, and a total of 300 force curves were recorded at different positions on the substrate. The average force values were summarized and calculated in the form of histograms and were expressed as a probability (%), which was obtained by dividing each count number by the total number of measured force curves."}, "[6]": {"system": "MDA-MB-435 tumors (MT1-MMP)", "conditions": "cited from earlier work", "method": "Among the mutated peptides selected by virtual screening and docking based on the calculated lowest binding energy, the binding affinities were tested by conducting AFM, ITC, and cell fluorescence imaging in vitro. The tumor targeting effects of the optimal peptide were further confirmed by performing an in vivo imaging experiment in a tumor-bearing mice model."}, "DQ-gelatin from pig skin": {"system": "DQ-gelatin from pig skin", "assay": "Enzymatic activity of recombinant MT1-MMP", "type": "biochemical", "conditions": "refolded recombinant catalytic domain; unit not given", "method": "as §2, with “The refolding buffer included 50 mM HEPES, 10 mM CaCl2, 200 mM NaCl, 1 mM phenylmethylsulfonyl fluoride, 20 μM ZnCl2, 0.01% Brij-35, 5% Glycerol, 100 μg/ml DNase, at a pH 7.5.” left out\nThe protein samples from induced lysates, inclusion bodies and renaturation were separated by 15% reducing sodium dodecyl sulfate–polyacrylamide gel electrophoresis (SDS–PAGE) gel followed by Coomassie Brilliant Blue R-250 (CBB) staining. Protein concentration was measured at each step by the BCA Protein Assay Kit (Thermo Scientific, USA) according to manufacturer’s instructions. After renaturation of MT1-MMP, the enzymatic activity of the recombinant MT1-MMP was measured by using fluorescein conjugated substrate, DQ™-gelatin from pig skin (Molecular Probes)."}}, "note": "Ends that are not written are not given here. Peptide text beside a SMILES is read from it. * marks the point of attachment. X1 = CC[N+]1=C(C=CC=CC=C2N(CCCCCC(=O)*)c3ccc4c(S(=O)(=O)O)cc(S(=O)(=O)O)cc4c3C2(C)C)C(C)(C)c2c1ccc1c(S(=O)(=O)O)cc(S(=O)(=O)[O-])cc21"}
{"compound": "CC[N+]1=C(C=CC=CC=C2N(CCCCCC(=O)N[C@@H](Cc3c[nH]cn3)C(=O)N[C@@H](Cc3c[nH]c4ccccc34)C(=O)N[C@@H](CCCCN)C(=O)N[C@@H](CCCNC(=N)N)C(=O)N[C@@H](CC(C)C)C(=O)N[C@@H](Cc3c[nH]cn3)C(=O)N[C@@H](CC(N)=O)C(=O)N[C@H](C(=O)N[C@@H](CCCCN)C(=O)N[C@H](C(=O)N[C@@H](Cc3ccccc3)C(=O)N[C@@H](CC(C)C)C(=O)O)[C@@H](C)O)[C@@H](C)O)c3ccc4c(S(=O)(=O)O)cc(S(=O)(=O)O)cc4c3C2(C)C)C(C)(C)c2c1ccc1c(S(=O)(=O)O)cc(S(=O)(=O)[O-])cc21", "note": "[Cy5.5-MT1-AF7p-H4R] (X1-HWKRLHNTKTFL-OH; C-terminus assumed)", "values": [{"measurement": "Binding constant (Ka)", "setting": "MT1-MMP [1]", "result": 175000, "unit": "M⁻¹"}, {"measurement": "Tumor signal after blocking with free peptide", "setting": "[2]; excess free MT1-AF7p-H4R (1 μM) injected 30 min prior", "result": "Low Cy5.5-MT1-AF7p-H4R accumulation was observed"}, {"measurement": "Time of maximum tumor accumulation (T/M)", "setting": "[2]; i.v., MDA-MB-435 tumor", "result": 4, "unit": "h"}, {"measurement": "tissue to tissue ratio at 1 h", "setting": "[3]", "result": "1.22 ± 0.22"}, {"measurement": "tissue to tissue ratio at 2 h", "setting": "[3]", "result": "2.77 ± 0.31"}, {"measurement": "tissue to tissue ratio at 4 h", "setting": "[3]", "result": "4.26 ± 0.56"}, {"measurement": "Clearance route", "setting": "[4]; 4 h post-injection, ex vivo quantification", "result": "prominent renal clearance"}, {"measurement": "Tumor fluorescent signal ex vivo", "setting": "[4]; 4 h post-injection, i.v. 1 nM Cy5.5-peptide, average scaled signal", "result": "8.04 × 10^7"}, {"measurement": "Tumor fluorescent signal relative to MT1-AF7p", "setting": "[4]; 4 h post-injection, 8.04 × 10^7 vs. 2.51 × 10^7", "result": 3.2, "unit": "times"}, {"measurement": "Fluorescent signals in blocking group", "setting": "[4]; ex vivo, blocked with excess free MT1-AF7p-H4R", "result": "very few fluorescent signals were detected in the blocking group"}, {"measurement": "Binding force (peak position of force histogram)", "setting": "MT1-MMP [5]", "result": 260, "unit": "pN"}]}
{"compound": "CC[N+]1=C(C=CC=CC=C2N(CCCCCC(=O)N[C@@H](Cc3c[nH]cn3)C(=O)N[C@@H](Cc3c[nH]c4ccccc34)C(=O)N[C@@H](CCCCN)C(=O)N[C@@H](Cc3c[nH]cn3)C(=O)N[C@@H](CC(C)C)C(=O)N[C@@H](Cc3c[nH]cn3)C(=O)N[C@@H](CC(N)=O)C(=O)N[C@H](C(=O)N[C@@H](CCCCN)C(=O)N[C@H](C(=O)N[C@@H](Cc3ccccc3)C(=O)N[C@@H](CC(C)C)C(=O)O)[C@@H](C)O)[C@@H](C)O)c3ccc4c(S(=O)(=O)O)cc(S(=O)(=O)O)cc4c3C2(C)C)C(C)(C)c2c1ccc1c(S(=O)(=O)O)cc(S(=O)(=O)[O-])cc21", "note": "[Cy5.5-MT1-AF7p] (X1-HWKHLHNTKTFL-OH; C-terminus assumed)", "values": [{"measurement": "Binding constant (Ka)", "setting": "MT1-MMP [1]", "result": 107000, "unit": "M⁻¹"}, {"measurement": "Tumor accumulation in MDA-MB-435 xenografts", "setting": "[6]; compared with negative control", "result": "significantly higher tumor accumulation"}, {"measurement": "tissue to tissue ratio at 4 h", "setting": "[3]", "result": 1.98}, {"measurement": "Binding force (peak position of force histogram)", "setting": "MT1-MMP [5]", "result": 150, "unit": "pN"}]}
{"compound": "Cy5.5 [reference compound]", "values": [{"measurement": "Tumor accumulation of free dye", "setting": "[6]; within 48 h post-injection", "result": "did not accumulate in the tumor site within 48 h post-injection"}]}
{"compound": "HWKHLHNTKTFL [MT1-AF7p]", "values": [{"measurement": "Binding constant (Ka)", "setting": "MT1-MMP [1]", "result": 107000, "unit": "M⁻¹"}]}
{"compound": "HWKKLHNTKTFL [MT1-AF7p-H4K, MT1-AF7p with histidine 4 mutated to Lys]", "values": [{"measurement": "Affinity to MT1-MMP by AFM", "setting": "MT1-MMP [5]; single-molecule recognition force spectroscopy", "result": "had a nearly identical binding capacity with MT1-MMP than MT1-AF7P"}]}
{"compound": "HWKRLHNTKTFL [MT1-AF7p-H4R, HWKRLHNTKTFL]", "values": [{"measurement": "Specificity and affinity to MT1-MMP in optical imaging in vivo", "setting": "[2]; compared with MT1-AF7p", "result": "higher specificity and affinity to the receptor (MT1-MMP) in optical imaging in vivo"}, {"measurement": "Tumor imaging effect vs MT1-AF7p", "setting": "[2]; i.v. tail vein, 10 μM (1 nM in 100 μL PBS), Cy5.5-labeled, p ≤ 0.01, n = 5/group", "result": "better than MT1-AF7p (p ≤ 0.01)"}, {"measurement": "Fluorescence intensity in tumor site vs MT1-AF7p", "setting": "[2]; i.v. tail vein, all time points from 2 h to 24 h, Cy5.5-labeled, n = 5/group", "result": "considerably stronger than that of MT1-AF7p at all the time points from 2 h to 24 h"}]}
{"compound": "MT1-MMP: recombinant human MT1-MMP catalytic domain (20 kDa) refolded from E. coli inclusion bodies", "values": [{"measurement": "Enzymatic activity against DQ-gelatin", "setting": "DQ-gelatin from pig skin", "result": "9.81 × 10^6"}]}
